Key:
Assay in all cases: SPR as in Example 1.8
[1] = target: T1, FGFR1 D2 point mutant S102A (human, UniProt P11362 22-254)
T1 chain: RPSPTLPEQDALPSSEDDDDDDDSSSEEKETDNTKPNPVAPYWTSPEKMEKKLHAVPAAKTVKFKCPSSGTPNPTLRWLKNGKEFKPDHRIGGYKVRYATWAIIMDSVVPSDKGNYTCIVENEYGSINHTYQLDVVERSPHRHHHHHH
Procedure: (§1) Binding affinities of anti-FGFR1 antibodies to FGFR1 were measured by Surface Plasmon Resonance (SPR) using a GE Healthcare BIAcore 4000 instrument as follows. Goat anti-human Fc antibody (Jackson ImmunoResearch Laboratories #109-005-098) was first immobilized on BIAcore carboxymethylated dextran CM5 chip using direct coupling to free amino groups following the procedure described by the manufacturer. Antibodies were then captured on the CM5 biosensor chip to achieve approximately 200 response units (RU). Binding measurements were performed using the running HBS-EP+ buffer. A 2-fold dilution series of His-tagged FGFR1 proteins were injected at a flow rate of 30 μl/min at 25° C. Association rates (kₒₙ, per mol/s) and dissociation rates (koff, per s) were calculated using a simple 1:1 Langmuir binding model (Biacore 4000 Evaluation Software). The equilibrium dissociation constant (KD, mol) was calculated as the ratio of koff/kₒₙ.
(§2) To obtain a finer, residue-level mapping of the epitope and to complement the HD exchange data, molecular modelling and manual inspection of the crystal structure of FGFR1 [(Beenken et al. 2012); PDB record 3OJV] was used to select solvent exposed residues within and around the epitope identified by HD exchange. The selected residues were mutated either to alanine (large to small) or to glycine if the selected residue was alanine. In total 35 point mutants were designed, expressed and purified in HEK cells, and tested for binding to mAb #A08 using surface plasmon resonance as described in Example 1.8. The affinity of the antibody for wild-type and each mutant was determined and used to calculate the contribution of each epitope residue to the binding energy.

[2] = target: T2, FGFR1 D2 point mutant K52A (human, UniProt P11362 22-254)
T2 chain: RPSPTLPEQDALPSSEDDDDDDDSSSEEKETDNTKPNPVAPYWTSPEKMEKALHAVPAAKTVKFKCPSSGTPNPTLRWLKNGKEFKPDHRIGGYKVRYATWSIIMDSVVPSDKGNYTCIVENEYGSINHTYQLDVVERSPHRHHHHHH
Procedure: as §1, §2

[3] = target: T3, FGFR1 D2 point mutant V56A (human, UniProt P11362 22-254)
T3 chain: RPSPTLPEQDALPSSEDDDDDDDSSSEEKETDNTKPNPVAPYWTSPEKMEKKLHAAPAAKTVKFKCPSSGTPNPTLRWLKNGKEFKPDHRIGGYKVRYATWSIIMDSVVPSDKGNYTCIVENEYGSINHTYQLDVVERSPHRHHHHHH
Procedure: as §1, §2

[4] = target: T4, FGFR1 D2 point mutant L53A (human, UniProt P11362 22-254)
T4 chain: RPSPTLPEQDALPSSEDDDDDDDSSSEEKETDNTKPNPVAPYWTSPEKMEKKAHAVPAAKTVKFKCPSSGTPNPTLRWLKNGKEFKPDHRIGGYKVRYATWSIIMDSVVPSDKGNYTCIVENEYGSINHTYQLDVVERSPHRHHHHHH
Procedure: as §1, §2

[5] = target: T5, FGFR1 D2 point mutant A99G (human, UniProt P11362 22-254)
T5 chain: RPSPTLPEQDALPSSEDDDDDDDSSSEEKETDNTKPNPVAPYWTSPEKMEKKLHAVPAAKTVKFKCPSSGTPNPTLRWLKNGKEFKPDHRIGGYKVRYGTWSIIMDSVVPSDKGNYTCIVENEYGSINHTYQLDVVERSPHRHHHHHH
Procedure: as §1, §2

[6] = target: T6, FGFR1 D2 point mutant Y98A (human, UniProt P11362 22-254)
T6 chain: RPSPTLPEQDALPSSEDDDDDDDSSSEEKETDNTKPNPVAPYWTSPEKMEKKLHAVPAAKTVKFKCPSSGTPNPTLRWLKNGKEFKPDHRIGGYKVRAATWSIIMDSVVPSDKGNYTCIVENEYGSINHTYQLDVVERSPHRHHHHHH
Procedure: as §1, §2

[7] = target: T7, FGFR1 D2 point mutant G93A (human, UniProt P11362 22-254)
T7 chain: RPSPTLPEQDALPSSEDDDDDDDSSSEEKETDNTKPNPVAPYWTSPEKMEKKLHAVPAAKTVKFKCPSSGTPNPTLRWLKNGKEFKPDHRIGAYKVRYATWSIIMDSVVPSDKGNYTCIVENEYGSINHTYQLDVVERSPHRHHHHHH
Procedure: as §1, §2

[8] = target: T8, FGFR1 D2 point mutant K65A (human, UniProt P11362 22-254)
T8 chain: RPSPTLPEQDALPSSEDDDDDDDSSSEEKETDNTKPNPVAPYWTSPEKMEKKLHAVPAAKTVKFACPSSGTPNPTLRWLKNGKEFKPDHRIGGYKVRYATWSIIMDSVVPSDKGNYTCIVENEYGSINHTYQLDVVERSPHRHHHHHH
Procedure: as §1, §2

Human FGFR1 D2-His6 = target: T9, Human FGFR1 D2-His6 (human, UniProt P11362 22-254)
T9 construct: also called D2 domain; F3FR1c-D2
T9 sequence: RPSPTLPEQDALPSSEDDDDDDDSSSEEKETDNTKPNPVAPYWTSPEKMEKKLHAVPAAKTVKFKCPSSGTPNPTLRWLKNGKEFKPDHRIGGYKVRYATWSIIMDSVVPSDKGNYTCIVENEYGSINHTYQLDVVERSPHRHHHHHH
Procedure: as §1, §2

[9] = target: T10, FGFR1 D2 point mutant V96A (human, UniProt P11362 22-254)
T10 chain: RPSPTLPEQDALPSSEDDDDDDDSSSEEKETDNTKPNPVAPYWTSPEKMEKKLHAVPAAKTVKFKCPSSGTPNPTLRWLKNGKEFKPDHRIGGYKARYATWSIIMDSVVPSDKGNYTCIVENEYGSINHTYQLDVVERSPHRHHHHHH
Procedure: as §1, §2

[10] = target: T11, FGFR1 D2 point mutant K48A (human, UniProt P11362 22-254)
T11 chain: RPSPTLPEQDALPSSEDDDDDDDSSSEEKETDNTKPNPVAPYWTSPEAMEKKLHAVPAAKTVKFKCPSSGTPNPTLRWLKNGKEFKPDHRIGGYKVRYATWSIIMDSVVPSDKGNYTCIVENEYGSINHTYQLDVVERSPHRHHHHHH
Procedure: as §1, §2

- Kd [1]: 0.16 nM
- Kd [2]: 0.23 nM
- Kd [3]: 0.27 nM
- Kd [4]: 0.29 nM
- Kd [5]: 0.18 nM
- Kd [6]: 0.18 nM
- Kd [7]: 0.32 nM
- Kd [8]: 0.18 nM
- Kd (Human FGFR1 D2-His6): 0.19 nM
- Kd [9]: 0.19 nM
- Kd [10]: 0.09 nM
B1: mAb #A08 (antibody, V domains shown)
VH: EVQLQESGPGLVKPSGTLSLTCAVSGGSISSNNWWSWVRQPPGKGLEWIGEIYHSGSTSYNPSLKSRVTISVDKSKNQFSLKLNSVTAADTAVYYCARGTDWFDPWGQGTLVTVSS
VL: QAVLTQPPSVSVAPGQTARITCGGNNIGSESVHWYQQKPGQAPVLVVYDDSDRPSGIPERFSGSNSGNTATLTISRVEAGDEADYYCQVWDSTSDHRVFGGGTKLTVL
notes: Only variable domains are tied to the name mAb #A08 (hit); also called #A08 hit; mAb #08
